A short description of this series: yeast display, Sf9 membrane polyspecificity reagent, FACS + sequencing; frameworks hold sequencing errors. The method, boiled down:
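After 36–48 hours of galactose induction, yeast (Saccharomyces cerevisiae BJ5465) displaying a synthetic nanobody library were stained at 4 °C for 1 hour with 10% biotinylated, detergent-solubilized Sf9 membrane reagent. Streptavidin microbeads enriched the stained cells before FACS sorting into low and high (top ~1%) gates on anti-HA and streptavidin fluorescence. Each clone's polyreactivity label reflects its gate of origin.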
For the sequence “QVQLVESGGGLVQAGGSLRLSCAASGSTFSYNTMGWYRQAPGKERELVASNTRSGGSTNYADSVKGRFTISRDNAKNTVYLQMNSLKPEDTAVYYCAKDYISVWNVRASDYYWYDYWGQGTQVTVSS”, the “polyreactivity (PSR sort gate)” value is given as “low polyreactivity”.
The result for “QVQLVESGGGLVQAGGSLRLSCAASGSIFGSYAMGWYRQAPGKERELVAAISKSGGNTYYADSVKGRFTISRDNAKNTVYLQMNSLKPEDTAVYYCAAYGFYRWRGYDYWGQGTQVTVSS” reads “high polyreactivity”.
The result for “QVQLVESGGGLVQAGGSLRLSCAASGSTIYSYTMGWYRQAPGKERELVAAISRGSSTYYADSVKGRFTISRDNAKNTVYLQMNSLKPEDTAVYYCAAQYRQIYYSYFEYYWGQGTQVTVSS” reads “high polyreactivity”; that for “QDQHVESGRGLVQEGGSLRLSSPPSGRTIYEYAIGWYRQAPGKETQLVAGITTSGGSTYYAVSVKGRFTISRDNAKNTVYLQMNSLKPEDTAVYYCAKYRKSRGDNDSWGQGTQVTVSS”, “high polyreactivity”; that for “QVQLVESGGALVQAGGSLRLSCAASRSIFSNAMGWYRQAPRKERELDAAITGRGGRTYYADSVKGRFTISRDNAKYTVYLQMNSLNPEDTAVYYCARDSPWSSRYRYRAFDYWGQGTQVTVSS”, “high polyreactivity”.
For “QVQLVESGGGLVQAGGSLRLSCAATGITFTRYAMGWYRQAPGKEREFVAAIRRSGGNTYYADSVKGRFTISRDNAKNTVYILMNSLKPEDTAVYYCAASFRKTSPTRLVDYWGQGTQVTVSS”, the “polyreactivity (PSR sort gate)” value was “low polyreactivity”.
On to “QVQLVESGGGLVQAGGSLRLSCAASGIIFYYYAKGWYRQSPGKERELVAAISSSGGRTRYADSVKGRFTISRDNAKNTVFLQMNSLKPEDSAVYYCAAEFIRGYGESYDYWGQGTQVTVSS”, for which the “polyreactivity (PSR sort gate)” value was “low polyreactivity”.
The result for “QVQLVESGGGLVQAGGSLRLSCAASGNIFLYYTMGWYRQAPGKERELVAGITSGGSTYYADSVKGRFTISRDNAKNTVSLQMNSLKPEDTAVYYCAATYYPNFYRYYYWGQGTQVTVSS” reads “low polyreactivity”; that for “QVQLVESGGGLVQAGGSLRLSCAASGRTFHKYAMGWLRQAPGKERELVAAITGSGVRTYYADSVKGRFTISRDNAKNTVYLQMNSLKPEDTAVYYCNADSYNRNGDYWGQGTQVTVSS”, “high polyreactivity”.
As for “QVQLVESGGGLVQAGGSLRLSSAASGYTYYVYAMGWYRQAPGKERELVAAISGGSNTYYADSVKGRFTISRDNAKNTVYLQMNSRKPEDTAVFYCAKSSTTYRQRARYDYWGLGTQVTVSS”, the “polyreactivity (PSR sort gate)” value is “high polyreactivity”.
The result for “QVQLVESGGGIVQAGGSLRLSCAASGSTFRGYAMGWYRQAPGKERELVAAITYISDSTYYADSVKGRFTISRDNAKNTVYLQMNCLKPVDTAVYYCNAYYDGDWRYTSQETGDHWGQGTQVTVSS” reads “low polyreactivity”; that for “QFQLVESGGCLVQAGCSLRLSCAASGFIIFSNAMGLYRQAPGKERELVAAISRIGVSTFYADSVKGRLTISRDNAKNTVYLQMNSLKPEDTAVYYCNKSNPDYDGLAIHAFDYWGQGTQVTVSS”, “low polyreactivity”.
“QVQLEDSGGGLVQAGRSLLLSFAASGNTFWLNAKGRYRQAPGKERELVAAITYTDGSTYADSVKGRFTISRDNAKITVYLQMNSLKPEDSAVYYCAARYQWDWRDYYYWGQGTQVTVSS”: the “polyreactivity (PSR sort gate)” value is reported as “low polyreactivity”.
Regarding “QVQLVESGGGLVQAGGSLRLSCAASGRTLQGYAMGWYRQAPGKERELVAAISRGGGSTYADSVKGRFTISRDNAKNTVYLQMNSLKPEDTAVYYCNKKSYYRYYWGQGTQVTVSS”, the “polyreactivity (PSR sort gate)” value is recorded as “high polyreactivity”.
On to “QVQLVESGGGLVQAGGSLRLSCAASGFIFASYAMGWYRQAPVKERELVAAISSCGGRTYYADSVKGRFTISRDNAKNTVNLQMNSLKPEDTAVYYCAADWRFTYDYWGQGTQVTVSS”, for which the “polyreactivity (PSR sort gate)” value is “high polyreactivity”.
For the sequence “QVQLVESGVGLVQAGGSLRLSCAASGLTFYLYSMGWYRQAPGKERELVAAINSRGGNTYYADSVKGRFTISRDKAKNTVDLQMNSLKPEDTAVYYCAADWGPWYYYWGQGTQVTVSS”, the “polyreactivity (PSR sort gate)” value is given as “high polyreactivity”.
The result for “QVQLVESGGGLVHAGGSLRLSCAASGLIFTNAMGWYRQAPGKEREFVAAINSSGGSTYADSVKGRFTISRDNAKNTVYLQMNSLKPEDTAVYFCAARVIYLYEYWGQGTQVTVSS” reads “low polyreactivity”.
“QVQLVESGGGLVQAGGSLRLSCAAYGRIFSAYVMGWYRQAPGKERELVAAISSTGSTYYADSAKGRFTISRDNAKNTVYLQMNSLKPEDTAVYYCAKRFFQQGYYYWGQGTQVTVSS”: the “polyreactivity (PSR sort gate)” value was “low polyreactivity”.
Consider “QVQLVESGGGLVQAGGSLRLSCAASGSIFTYYAMGWYRQAPGKEREFVAAINRSGGSTYYADSVKGRFTISRDNAKYTVYLQMNSLKPEDTAVYYCAARRGSGALRYNYWGQGTQVTVSS”, for which the “polyreactivity (PSR sort gate)” value was “high polyreactivity”.
The result for “QVQLVESGGGLVQAGGSLRLSCAASGGTLRYYVMGWYRQAPGKDRELVAAISWAGDSTYYADSVKGRFTISRDNAKNTVYLQMNSLKPEDTAVYYCAATYYLTYYSGQANHGYDYWGQGTQVTVSS” reads “low polyreactivity”; that for “QVQLVESGGGLVQAGGSLRLSCAASGFTFDYYAMGWYRQAPGKERELVAAISRAGSTNYADSVKGRFTISRDNAKNTVYLQMNSLKPEDTAVYYCNKGYHSWSRLSQFGWSYDYWGQGTQVTVSS”, “high polyreactivity”; that for “QVQLVESGGGLVQAGGSLRLSCAASGSIFGPYAMGWYRQAPGKERELVAAISRGSRTNYADSVKGRFTISRDNAKNTVYLQMNSLKPEDTAVYYCAARYVWRSTHHRGSTYDYWGQGTQVTVSS”, “high polyreactivity”.
Consider “QVQLVESGGGLVQAGGSLRLSCAASGFIFYLYTMGWYRQAPGKERELVAAITRSGGTYYADSVKGRFTISRDNAKNTVYLQMNSLKPEDTAVYYCNADDYEGYYYWGQGTQVTVSS”, for which the “polyreactivity (PSR sort gate)” value was “low polyreactivity”.
“QVQLVDSGGGLVQAGGSLRLSCAASGFIFDINAMGWYRQAPGKERELVAAISYSGGSTYYADSVKGRFTISRDNAKNTVYLQMNSLKPEDTAVYYCAADCGPDSDEGDYWGQGTQVTVSS”: the “polyreactivity (PSR sort gate)” value was “low polyreactivity”.
For “QVQLVESWAGLVQAGGRLRLSCAASGSSFQVYAMGWYRQAPGKERELVAAISGDGGSTYYADSVKGRFTISRDNAKNTVYLQMNSLKPEDTAVYYCAARGLFRYTDYGYWGQGTQVTVST”, the “polyreactivity (PSR sort gate)” value is on record as “low polyreactivity”.
With “QVQLVESGGSLVQAGGSLRLSCAATGRIFGPYAMGWYRQAPGKERELVATITWSGVSTYYADSVKGRFTLSRDNAKNTVYLQMNSLKPEDTAVYFCAADPQVIYRGFYQRDYWGQGTQVTVSS”, the “polyreactivity (PSR sort gate)” value is “low polyreactivity”.
Turning to “QVQLVESGGGLVQAGGSLRLCCAASGLTFYPNAMGWYRQAPGKEREFVASISISGRTYYADSVKGRFTISRDNAKNTVYLQMNSLKPEDTAVYYCAARYVRSGLYRKYDYWGQGTQVTVSS”, the “polyreactivity (PSR sort gate)” value is recorded as “high polyreactivity”.
As for “QVHLVESGGGLVQAGGSLRLSCAASGRIFAWYAMGWYRQAPGKERELVAAITWGGGRTYYADSVKGRFTISRDNAKNTVYLQMNSLKPEDSAFYYCNRDFDDEMWGQGTQVTVSS”, the “polyreactivity (PSR sort gate)” value is listed as “low polyreactivity”.
Take “QVQLVESGGGLVQAGGSLRLSCAASGFIFGYNAMGWYRQEPGKERELVARIRYRGARTYYADSVKGRFTISRDNAKNTVYLQMNSLKPEDTAVYYCAAVASWPGGYDYWGQGTQVTVSS”: the “polyreactivity (PSR sort gate)” value is “high polyreactivity”.
“QFQLAESGGGLVQAGGSLRLSCAASGFTFRDYAMGWSRQATGKERELVATISWRGGSTYYADSVKGRFTISRDNAKNTVYLQMNSLKPEDTAVYYCAKRPYQRSVPYGKYDYWGQGTQVTVSS”: the “polyreactivity (PSR sort gate)” value is “low polyreactivity”.
“QVQLVESGGGLVQAGGSLRLSCAASGRIFGGYAMGGDRQAPGKERELVAVISGRGGSTYYADSVKGRFTISRDNAKNTVYLQMNSLKPEDTAVYYCTVYRRIQRYGPQSYDYWGQGTQVTVSS”: the “polyreactivity (PSR sort gate)” value is “high polyreactivity”.
“QVQLVESGGGLVQAGGSLRLSCAASGITFADYVMGWYRPAPGKERELVAAISTDGGSTYYADSVKGRFTISRDNAKNTVYLQMNSLKPEDTAVYYCASEWSYPGYEFDYWGQGTQVTVSS”: the “polyreactivity (PSR sort gate)” value is on record as “high polyreactivity”.
For “QVQLVDSGGGLVQAGGSLRLSCAASGGTFDTYAMGWYRQAPGKERELVAVIRASGGDTYYADSVKGRFTISRDNAKNTVYLQMNSLKPEDTAVYYCAAVLPFKYDYWGQGTQVTVSS”, the “polyreactivity (PSR sort gate)” value is reported as “low polyreactivity”.
“QVQLVESGGCLVQAGGSLRLSCAASGRIFSSYAMGWYRQAPGKERELVAAIRSSGDRTYYADSVKGRFTISRDNAKNTVYFQMNSLKPEDTAVYYCAADLRRFQSYYYWGQGTQVTVSS”: the “polyreactivity (PSR sort gate)” value is given as “high polyreactivity”.
On to “QVQLVESGGGLVHAGGSLRLSCAASGGILVFYAMGWYRQAPGKERELVAAINVSGGSTYYADSVKGRYTISRDNAKNTVYLQMNSLKPEDTAVYYCAALGPYLDYGVQYGYWGQGTQVTVSS”, for which the “polyreactivity (PSR sort gate)” value is recorded as “low polyreactivity”.
For “QVQLVESGGGLVQAGGSLRLSCAASGRTFTYNAMGWYRQAPGKERELVAAITYRGGSTYYADSVKGRFTISRDNAKNTVYLQMNSLKPEDTAVYYCAARVSYYRYNTPHYYYWGQGTQVTVSS”, the “polyreactivity (PSR sort gate)” value is recorded as “high polyreactivity”.
The result for “QVQLVESGGGLVQAGGSHRLSSAASGLTFGGNAMGWYRQAPGKERELVAGISSSGNTNYADSVKGRFTISRDNAKNTVYLQMNSLKPEDTAVYYCAADENITYPVYDMYDWGQGTQVTVSS” reads “low polyreactivity”; that for “QVQLVESGGGLVQAGGSLRLSCAPSGSIFERYAMGWYRHAPGKERELVAAISWRGGSTYYADSVKGRFTISRDNAKNTVYLQMNSLIQEDTAVYYCAADSRTCYYYWGQGTQVTVST”, “high polyreactivity”.
As to “QVQLVESGGGLVQAGGSLRLSCAASGSTFYTYAMGWYRQAPGKERELVAAITRGGGRTYYADSVKGRFTISRDNAKNTVYLQMNSLKPEDTAVYYCAATVGYGHSYAGWYWVDYWGQGTQVTVSS”, the “polyreactivity (PSR sort gate)” value was “high polyreactivity”.
Regarding “QVQLVESGGGLVQAGGSLRLSCAASGSTFSRYAMGWYRQAPGKERELVAAISSRGGSTYYADSVKGRFTISRDNAKNTVYLQMNSLKPEDTAVYYCNALTSYQNHVYPYDYWGQGTEVTVSS”, the “polyreactivity (PSR sort gate)” value is reported as “high polyreactivity”.
On to “QVQLEESGGGLVQAGGILRLSCAFYYGIGWYRQATGKERELVAAINLGGGSTYYADSVKGLFTISRDNAKNTVYLQMNSLKPEDTAVYYGAADVGSRTYYVKYDYWGQGTEVTVSS”, for which the “polyreactivity (PSR sort gate)” value was “low polyreactivity”.

(Values after the nanobody polyreactivity screen of Harvey et al. (2022).)
